For eight molecules, binding result, binding signal and Kd results are on record in publication PMC12136788.

In series [1] the target is T1, UNK (called full-length) (UniProt Q9C0B0 30-357).
T1 sequence: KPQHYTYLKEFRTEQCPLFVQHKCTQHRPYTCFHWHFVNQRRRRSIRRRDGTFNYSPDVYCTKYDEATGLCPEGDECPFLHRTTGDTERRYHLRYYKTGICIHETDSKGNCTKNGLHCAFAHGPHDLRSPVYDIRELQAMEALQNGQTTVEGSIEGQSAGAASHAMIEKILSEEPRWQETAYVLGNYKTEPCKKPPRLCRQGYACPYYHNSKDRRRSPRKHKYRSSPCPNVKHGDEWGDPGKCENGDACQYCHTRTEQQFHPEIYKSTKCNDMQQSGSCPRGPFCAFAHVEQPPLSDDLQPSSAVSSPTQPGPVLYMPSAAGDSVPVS
The series can be described thus: fluorescence polarization; FP: 5 nM RNA, 20 mM Hepes (pH not given), 5 mM DTT, 137.5 mM NaCl, 0.01% Triton X-100, 10 ng/ul BSA, 2 U/ml SUPERase-In; 15 min at 4 C, read at 25 C; positional. (In fluorescence polarisation assays a small probe gives low polarisation when free and higher when bound to something large.)

The target of series [2] is MSI1 swap (mouse, UniProt Q61474 1-19+109-191+104-108+20-103+192-362, internal_change). The series is described as above.
MSI1 swap, sequence (Q61474 other isoform, or with tags, fused parts or gaps): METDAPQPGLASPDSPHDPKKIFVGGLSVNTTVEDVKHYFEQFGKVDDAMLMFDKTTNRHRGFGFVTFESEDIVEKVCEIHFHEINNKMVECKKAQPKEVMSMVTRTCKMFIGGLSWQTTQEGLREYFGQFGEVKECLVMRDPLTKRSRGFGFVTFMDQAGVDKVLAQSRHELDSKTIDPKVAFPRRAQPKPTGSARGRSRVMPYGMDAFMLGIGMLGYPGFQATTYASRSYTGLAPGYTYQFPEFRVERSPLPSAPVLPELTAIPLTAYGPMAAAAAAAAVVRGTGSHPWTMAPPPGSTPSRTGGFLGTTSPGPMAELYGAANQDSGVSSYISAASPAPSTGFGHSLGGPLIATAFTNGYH
Series [3] addresses T2, MSI1 full-length (mouse, UniProt Q61474 1-362). The description is as above.
For series [4], the target named is T1, UNK (called full-length). The series can be described thus: fluorescence polarization; 50 nM unlabeled N16 RNA; FP: 5 nM RNA, 20 mM Hepes (pH not given), 5 mM DTT, 137.5 mM NaCl, 0.01% Triton X-100, 10 ng/ul BSA, 2 U/ml SUPERase-In; 15 min at 4 C, read at 25 C; positional.
The target of series [5] is T1, UNK (called full-length). Described as above. This is another data set of the same source.
Series [6] has as its target MSI2 full-length (UniProt Q96DH6 1-328). In words: fluorescence polarization; FP: 5 nM RNA, 20 mM Hepes (pH not given), 5 mM DTT, 137.5 mM NaCl, 0.01% Triton X-100, 10 ng/ul BSA, 2 U/ml SUPERase-In; 15 min at 4 C, read at 25 C; positional.
Series [7] deals with T2, MSI1 full-length. The description is as above. This is another data set of the same source.

T2 sequence (Q61474 whole entry): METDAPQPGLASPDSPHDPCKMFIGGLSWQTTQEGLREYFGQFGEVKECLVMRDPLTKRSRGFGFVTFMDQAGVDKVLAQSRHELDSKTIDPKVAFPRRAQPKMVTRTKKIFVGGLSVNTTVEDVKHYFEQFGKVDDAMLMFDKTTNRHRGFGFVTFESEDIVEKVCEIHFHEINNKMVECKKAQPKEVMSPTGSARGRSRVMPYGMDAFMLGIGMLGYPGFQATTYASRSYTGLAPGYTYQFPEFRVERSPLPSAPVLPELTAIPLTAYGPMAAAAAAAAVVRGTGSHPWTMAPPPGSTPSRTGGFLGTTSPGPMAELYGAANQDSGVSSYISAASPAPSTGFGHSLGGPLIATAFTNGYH
MSI2 full-length, sequence (Q96DH6 whole entry): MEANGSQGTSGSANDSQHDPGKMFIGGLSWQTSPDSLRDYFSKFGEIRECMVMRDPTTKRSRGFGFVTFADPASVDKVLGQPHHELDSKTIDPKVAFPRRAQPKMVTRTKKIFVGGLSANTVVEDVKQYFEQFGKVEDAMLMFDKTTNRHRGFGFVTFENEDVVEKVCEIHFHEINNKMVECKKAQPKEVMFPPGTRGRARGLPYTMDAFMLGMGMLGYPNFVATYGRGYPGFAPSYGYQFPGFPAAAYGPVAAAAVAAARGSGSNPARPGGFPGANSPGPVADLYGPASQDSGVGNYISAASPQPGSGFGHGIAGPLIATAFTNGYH

With CCCCCCCCCCCCCCCC (ssRNA) [polyC FP RNA], in series [1], the binding result is recorded as “no binding”. As a reminder, the Kd is a measure of binding affinity in units of concentration. A high value points to lower affinity. Consider AAAAAAAAUUAGAAAAAA (ssRNA) [mono-UAG FP RNA], for which the binding signal in series [2] is ~2 fold weaker than MSI1 on mono-UAG. The values for the Kd in series [3] and in series [4] were 126 nM and 400 nM, respectively. As to UUUUUUUUUUUUUUUU (ssRNA) [polyU FP RNA], the binding result in series [1] is listed as “no binding”. Take CCCCCCAAUUAGAAAAAA (ssRNA) [CCC-UAG FP RNA]: the binding signal in series [5] is ~2 fold tighter than mono-UAG. On to UAGUUUAGUUUAGUU (ssRNA) [tri-UAG FP RNA], for which the dissociation constant Kd in series [6] turned out to be 2 nM; in series [3] it was 5 nM. AAAAAUUAGUUAAUA (ssRNA) [UAG-AUA FP RNA] had a Kd in series [4] of 90 nM. UUAGUUAGUU (ssRNA) [dual-UAG FP RNA]: the results for the binding signal in series [2] and in series [7] were ~1 fold vs MSI1 on dual-UAG (no observable Kd difference) and ~10 fold tighter than mono-UAG, respectively. With CCCCCCAAUUAGUUAAUA (ssRNA) [CCC-UAG-AUA FP RNA], the binding signal in series [5] was ~1 fold vs UAG-AUA (little impact of upstream C).
